The record followed here is patent US20250101129A1 (AJINOMOTO, published 2025).

B1: QET-Z34CM-PA32-Fc3K (peptide)
chain: QETFNMQCQRRFYEALHDPNLNEEQRNARIRSIREECGGAAPAAPAPAAPAAPAPAAPAAPAPAAPAAPAPGGRGNCAYHKGQIIWCTYH
modifications: C-terminal -NH2 as printed in the 1st table; N-terminal Gln designed to be pyroglutamylated
B2: QET-Fc3K-PA48-Z34CM (peptide)
chain: QETRGNCAYHKGQIIWCTYHGGAAPAAPAPAAPAAPAPAAPAAPAPAAPAAPAPAAPAAPAPAAPAAPAPGGFNMQCQRRFYEALHDPNLNEEQRNARIRSIREEC
modifications: C-terminal -NH2 as printed in the 1st table; N-terminal Gln designed to be pyroglutamylated
B3: QET-Fc3K-PA32-Z34CM (peptide)
chain: QETRGNCAYHKGQIIWCTYHGGAAPAAPAPAAPAAPAPAAPAAPAPAAPAAPAPGGFNMQCQRRFYEALHDPNLNEEQRNARIRSIREEC
modifications: C-terminal -NH2 as printed in the 1st table; N-terminal Gln designed to be pyroglutamylated
B4: QET-Z34CM-PA48-Fc3K (peptide)
chain: QETFNMQCQRRFYEALHDPNLNEEQRNARIRSIREECGGAAPAAPAPAAPAAPAPAAPAAPAPAAPAAPAPAAPAAPAPAAPAAPAPGGRGNCAYHKGQIIWCTYH
modifications: C-terminal -NH2 as printed in the 1st table; N-terminal Gln designed to be pyroglutamylated

For the assay, the target named is T1, Fc protein of human IgG1 antibody (human, UniProt P01857-1 100-330 = IgG part, limits assumed).
T1 construct: domain: Fc; Immobilised on a CM5 chip by amine coupling at about 1400 RU; also called Fc region of an IgG1 antibody
Nature of the assay: SPR Biacore T200, 25 C, Fc of human IgG1 amine-coupled on CM5, peptide as analyte, single cycle kinetics.
Method: The affinity between each polypeptide and the Fc region of an IgG1 antibody was evaluated by SPR measurement (Biacore T200 (GE Healthcare)). The measurement was performed at 25° C., and HBS-EP+ was used as the running buffer. The Fc protein of human IgG1 antibody, as the ligand, was diluted to 30 g/mL in sodium acetate buffer, pH 4.5 (GE Healthcare) and immobilized on the surface of a CM5 Sensor Chip (GE Healthcare) at approximately 1400 RU using the amine coupling method. The peptides were diluted to 100 nM in HBS-EP+ buffer containing 0.1% DMSO. The measurement was performed using the single cycle kinetics method, with an analyte injection time of 120 seconds, a flow rate of 30 L/min, and a dissociation time of 120 seconds. The obtained sensorgrams were fitted based on the affinity to calculate the dissociation constant (KD).
Molecule B1 came in with a dissociation constant Kd of 7.91 nM.

With B2, the Kd was 8.48 nM.

B3: the Kd is 12.7 nM.

B4 had a Kd of 8.98 nM.

The Kd is the constant that tells how readily two partners part at equilibrium. Low values mean a tighter complex, high ones a looser complex.
